# Measurements reported in patent US20240101647A1 (VIB VZW, published 2024).
# Columns and labels:
# [1] = target: SARS-CoV-2 spike protein on VSV-delG pseudovirus particles or on cells (SARS-CoV-2, UniProt P0DTC2 14-1273); experiment: cell-based or functional assay
# [2] = target: T1, BSA (UniProt P02769 25-607); experiment: ELISA, coated BSA
# T1 construct: also called Bovine Serum Albumin
# T1 sequence (P02769 25-607 limits assumed): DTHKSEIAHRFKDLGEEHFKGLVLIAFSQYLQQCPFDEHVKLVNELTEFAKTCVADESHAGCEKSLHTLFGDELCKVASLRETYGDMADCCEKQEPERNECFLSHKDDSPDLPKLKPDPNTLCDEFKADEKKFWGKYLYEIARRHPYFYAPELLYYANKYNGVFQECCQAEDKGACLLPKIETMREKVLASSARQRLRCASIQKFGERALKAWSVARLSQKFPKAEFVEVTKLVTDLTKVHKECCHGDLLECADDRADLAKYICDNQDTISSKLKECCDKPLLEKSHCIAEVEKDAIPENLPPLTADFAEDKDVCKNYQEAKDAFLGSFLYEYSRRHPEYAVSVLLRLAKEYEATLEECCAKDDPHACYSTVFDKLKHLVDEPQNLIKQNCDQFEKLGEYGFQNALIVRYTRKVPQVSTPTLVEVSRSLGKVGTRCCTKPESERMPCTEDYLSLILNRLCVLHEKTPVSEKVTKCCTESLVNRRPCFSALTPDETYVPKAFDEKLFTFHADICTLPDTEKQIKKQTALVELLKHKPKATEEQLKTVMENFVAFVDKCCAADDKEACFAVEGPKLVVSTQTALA
Binder,neutralization relative to VHH72_h1_S56A [1] [fold],binding result [2]
VHH3.42 (VHH) VHH: QVQLQESGGGLVQPGGSLRLSCAASGSAVSINDMGWYRQPPGKQRELVATITKTGSTNYADSVKGRFTISRDNAKNAVYLEMNSLKPEDTATYYCNAWLPYGMGPDYYGMELWGKGTQVTVSS,~6,no binding
VHH3.92 (VHH) VHH: QVQLQESGGGLVQPGGSLRLSCAASGKAVSISDMGWYRQPPGKQRELVATITKTGNTNYADSAQGRFTISRDNAKSAVYLEMASLKPEDTAVYYCNAWLPYGMGPDYYGMELWGKGTQVTVSS,~6,–
VHH3.117 (VHH) VHH: QVQLQESGGGLVQPGGSLRLSCAASGKAVSISDMGWYRQPPGKQRELVATITKTGSTNYADSAQGRFTISRDNTKSAVYLEMKSLKPEDTAVYYCNAWLPYGMGPDYYGMELWGKGTQVTVSS,~6,no binding
